This note sets out measurements from patent US20260146074A1 (CITY OF HOPE, published 2026).

The experiment concerns the target TAG72 on the surface of human tumor cells (LS174T, OVCAR3, OV90, OVCAR8-sTn, patient ascites OAS4 and OAS7) (human). In words: cell-based or functional assay.

B1: TAG72-BBζ CAR (hTag72scFv-IgG4(HL-CH3)-CD4tm-41BB-Zeta), expressed on human T cells (other)
chain: QVQLVQSGAEVVKPGASVKISCKASGYTFTDHAIHWVKQNPGQRLEWIGYFSPGNDDFKYNERFKGKATLTADTSASTAYVELSSLRSEDTAVYFCTRSLNMAYWGQGTLVTVSSGSTSGGGSGGGSGGGGSSDIVMSQSPDSLAVSLGERVTLNCKSSQSLLYSGNQKNYLAWYQQKPGQSPKLLIYWASARESGVPDRFSGSGSGTDFTLTISSVQAEDVAVYYCQQYYSYPLTFGAGTKLELKESKYGPPCPPCPGGGSSGGGSGGQPREPQVYTLPPSQEEMTKNQVSLTCLVKGFYPSDIAVEWESNGQPENNYKTTPPVLDSDGSFFLYSRLTVDKSRWQEGNVFSCSVMHEALHNHYTQKSLSLSLGKMALIVLGGVAGLLLFIGLGIFFKRGRKKLLYIFKQPFMRPVQTTQEEDGCSCRFPEEEEGGCELGGGRVKFSRSADAPAYQQGQNQLYNELNLGRREEYDVLDKRRGRDPEMGGKPRRKNPQEGLYNELQKDKMAEAYSEIGMKGERRRGKGHDGLYQGLSTATKDTYDALHMQALPPR
Regarding B1, the “tumor killing relative to Mock, LS174T cells, 24 hours” value came out at 59%; the “tumor killing relative to Mock, LS174T cells, 72 hours” value turned out to be 77%; the “tumor killing relative to Mock, OV90 cells, 24 hours” value was found to be 67%; the “tumor killing relative to Mock, OV90 cells, 72 hours” value turned out to be 97%. In addition, the “tumor killing relative to Mock, OVCAR3 cells, 24 hours” value is 79% and the “tumor killing relative to Mock, OVCAR3 cells, 72 hours” value stood at 90%.
